Values of other authors as cited in patent US20010007853A1, “METHOD FOR ADMINISTERING MONOMERIC INSULIN ANALOGS” (priority 1998, published 2001).

Settings: calculated

Substance | Absorption values for proteins delivered through the lungs
parathyroid hormone (fragment 1-34) | fifteen
glycosylated α1-antitrypsin | 48 h
